Literature values as cited in publication PMC3137789.

Molecular target: plexinC1 (Homo sapiens) (UniProt O60486)
Chain of UniProt O60486 (O60486 35-944): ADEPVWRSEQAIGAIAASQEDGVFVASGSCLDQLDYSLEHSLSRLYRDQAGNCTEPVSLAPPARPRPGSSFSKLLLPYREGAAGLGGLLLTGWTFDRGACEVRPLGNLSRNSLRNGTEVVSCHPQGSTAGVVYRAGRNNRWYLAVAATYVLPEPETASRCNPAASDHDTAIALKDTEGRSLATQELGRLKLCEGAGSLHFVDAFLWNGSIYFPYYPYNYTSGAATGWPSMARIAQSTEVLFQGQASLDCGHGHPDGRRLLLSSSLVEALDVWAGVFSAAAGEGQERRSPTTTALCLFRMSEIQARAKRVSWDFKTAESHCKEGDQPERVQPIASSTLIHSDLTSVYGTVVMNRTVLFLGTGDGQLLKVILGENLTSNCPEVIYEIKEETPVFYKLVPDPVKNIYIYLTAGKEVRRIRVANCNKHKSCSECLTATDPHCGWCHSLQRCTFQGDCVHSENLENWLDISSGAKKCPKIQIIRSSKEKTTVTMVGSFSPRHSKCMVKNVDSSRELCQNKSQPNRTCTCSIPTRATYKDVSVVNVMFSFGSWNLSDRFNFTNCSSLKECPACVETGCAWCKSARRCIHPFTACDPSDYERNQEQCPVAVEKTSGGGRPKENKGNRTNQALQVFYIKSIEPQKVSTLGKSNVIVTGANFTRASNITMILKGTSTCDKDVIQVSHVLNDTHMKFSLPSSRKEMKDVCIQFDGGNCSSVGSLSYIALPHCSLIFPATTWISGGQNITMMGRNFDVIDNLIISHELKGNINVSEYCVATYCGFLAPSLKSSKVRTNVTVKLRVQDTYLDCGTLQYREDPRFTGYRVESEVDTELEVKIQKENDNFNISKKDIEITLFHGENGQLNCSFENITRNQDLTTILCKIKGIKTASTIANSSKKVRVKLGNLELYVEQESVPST

Kd: 300 nM
Substance: Sema7A (from UniProt O75326)
